Values of other authors in paper PMC9074927.
Read-outs that look alike come from different tables or passages of the source.

Tests used:
[1] = target: histone H3 (Homo sapiens) (UniProt P68431)
[2] = target: histone H3 (Homo sapiens) (UniProt P68431); remark: listed apart in the source

## CBX1 eReader chromodomain (from UniProt P83916)
[1]
  Kd: 130 nM

## CBX1 chromodomain (from UniProt P83916)
[2]
  Kd: 600 nM
